Data reported in article PMC9456098, “Crystal Structure of the Recombination Mediator Protein RecO from Campylobacter jejuni and Its Interaction with DNA and a Zinc Ion”.

Assays:
[1] = system: cjSSB (Campylobacter jejuni (strain ATCC 33291?)); assay: fluorescence polarization; conditions: FP: 20 mM Tris pH 8.0, 30 mM NaCl, 5 mM beta-mercaptoethanol, 0.8 nM fluorescein-ssDNA; temperature not stated; one-site model
[2] = molecular target: T1, cjRecO (Campylobacter jejuni subsp. jejuni ATCC …, UniProt Q0PC17 1-204); assay: fluorescence polarization; no saturation up to 100 uM; binding detectable from ~1 uM; Kd stated as at least 20 uM; FP: 20 mM Tris pH 8.0, 30 mM NaCl, 5 mM beta-mercaptoethanol, 0.8 nM fluorescein-ssDNA; temperature not stated; one-site model; conditions: protein: recombinant; tags: N-terminal His6 removed by thrombin (tag-free); single strand
T1 sequence: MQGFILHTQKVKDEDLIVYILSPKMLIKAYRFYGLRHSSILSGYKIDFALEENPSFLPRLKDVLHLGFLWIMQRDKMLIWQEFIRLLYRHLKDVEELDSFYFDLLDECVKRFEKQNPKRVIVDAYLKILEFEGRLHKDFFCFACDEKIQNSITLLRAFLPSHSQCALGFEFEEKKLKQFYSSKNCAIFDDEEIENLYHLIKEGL

Molecule | Kd [1] [nM] | Kd [2] [nM]
TTATAGGCATATAGGAGTAATTTTCTTGGGCTATGCAGTA [40-mer ssDNA] | 21.4 | –
TTATAGGCATATAGGAGTAATTTTCTTGGGCTATGCAGTA (ssDNA) [40-mer ssDNA] | – | > 20000
